Biological target: SARS-CoV-2 WT RBD protein (SARS-CoV-2 wild type, UniProt P0DTC2)
Assay: ELISA

B1: rabbit monoclonal antibody (RmAb) 9H1 (antibody, V domains shown)
VH: QSVEESGGRLVTPGTPLTLTCTVSGFSLSRYAMSWVRQAPGKGLEWIGIIVDSGHTAYASWAKGRFTISRTSTTVDLKMTSLTTEDTATYFCARETGGGAFYVFEFWGPGTVVTVSS
VL: QVLTQTPSSVSAAVGGTVTINCQASEDIYDNLVWYQQKPGQPPKLLIYDASTLAFGVSSRFRGSGSGTHFTLTMRDVQCDDAATYYCQGEFSCSSGDCTAFGGGTEVVVK
binding result: binds

Reference: PMC10072977 (Biochemical and Biophysical Research Communications, 2023)
